Measurements reported in patent US6057123, “Stem cell inhibiting proteins” (British Biotech Pharmaceuticals Limited, dated 2000).
Where a chain is given by its changes, count along the chain named.

B1: LD78 Leu-Ser-Ala-Ser1>Pro Gly38>Ser Ser46>Gly (Mutant 35) (ligand)
chain: LSAPLAADTPTACCFSYTSRQIPQNFIADYFETSSQCSKPSVIFLTKRGRQVCADPSEEWVQKYVSDLELSA
B2: LD78 Lys44>Glu Arg45>Gln (Mutant 2) (ligand)
chain: SLAADTPTACCFSYTSRQIPQNFIADYFETSSQCSKPGVIFLTEQSRQVCADPSEEWVQKYVSDLELSA
B3: LD78 Lys44>Ser (Mutant 42) (ligand)
chain: B2 chain with E44S, Q45R
B4: LD78 Asp26>Ala (Mutant 10) (ligand)
chain: B2 chain with D26A, E44K, Q45R
B5: LD78 Glu66>Ser (Mutant 52) (ligand)
chain: B2 chain with E44K, Q45R, E66S
B6: human LD78 (wild type, recombinant, expressed from a synthetic gene in yeast) (ligand)
chain: B2 chain with E44K, Q45R
B7: LD78 Phe28>Glu Arg47>Glu (Mutant 26) (ligand)
chain: B2 chain with F28E, E44K, Q45R, R47E
B8: LD78 Arg17>Ser (Mutant 5) (ligand)
chain: B2 chain with R17S, E44K, Q45R
B9: LD78 Tyr27>Ala (Mutant 66) (ligand)
chain: B2 chain with Y27A, E44K, Q45R
B10: LD78 Ser35>Ala (Mutant 68) (ligand)
chain: B2 chain with S35A, E44K, Q45R
B11: LD78 Val39>Ala (Mutant 91) (ligand)
chain: B2 chain with V39A, E44K, Q45R
B12: LD78 Ile19>Ala (Mutant 80) (ligand)
chain: B2 chain with I19A, E44K, Q45R
B13: LD78 Ile24>Ala (Mutant 38) (ligand)
chain: B2 chain with I24A, E44K, Q45R
B14: LD78 Arg17>Ser Gln18>Glu (Mutant 30) (ligand)
chain: B2 chain with R17S, Q18E, E44K, Q45R
B15: LD78 Asp5>Ser (Mutant 37) (ligand)
chain: B2 chain with D5S, E44K, Q45R
B16: LD78 Glu29>Arg (Mutant 28) (ligand)
chain: B2 chain with E29R, E44K, Q45R
B17: LD78 Ser1>Ala (Mutant 54) (ligand)
chain: B2 chain with S1A, E44K, Q45R
B18: LD78 Ser13>Ala (Mutant 62) (ligand)
chain: B2 chain with S13A, E44K, Q45R
B19: LD78 Phe12>Gln (Mutant 11) (ligand)
chain: B2 chain with F12Q, E44K, Q45R

Assays:
[1] = biological target: LD78 receptor on the murine stem cell line FDCP cell mix (A4 cells) (murine); assay: displacement of 125I-LD78 from FDCP-mix A4 cells; % of wild-type activity based on IC50
[2] = biological target: the molecule itself; assay: self-association; sedimentation equilibrium AUC, 150 mM PBS pH7.4

Binder | Receptor Binding % WT [1] [% WT] | binding result [2]
B1 | 3 | 
B2 | 5 | 
B3 | 18 | 
B4 | 77.4 | 
B5 | 162 | 
B6 | 100 | 
B7 | 1 | 
B8 | 25 | 
B9 | 47 | 
B10 | 125 | 
B11 |  | no binding (tested: 0.5 mg/ml)
B12 |  | no binding (tested: 0.5 mg/ml)
B13 | 50 | 
B14 | 4.2 | 
B15 | 45 | 
B16 | 7.7 | 
B17 | 145 | 
B18 | 66 | 
B19 | 34 | 
